Measured values as given in patent publication US20120309696A1 (UNIVERSITY OF DENVER, published 2012).

Key:
[1] = target: T1, human melanocortin 2 receptor (hMC2R), V-5 epitope tagged, expressed on CHO cells co-transfected with mouse … (human, UniProt Q01718 1-297); experiment: cell-based or functional assay
[2] = target: T1, human melanocortin 2 receptor (hMC2R), …; experiment: cell-based or functional assay; remark: listed apart in the source

T1 sequence (Q01718 whole entry): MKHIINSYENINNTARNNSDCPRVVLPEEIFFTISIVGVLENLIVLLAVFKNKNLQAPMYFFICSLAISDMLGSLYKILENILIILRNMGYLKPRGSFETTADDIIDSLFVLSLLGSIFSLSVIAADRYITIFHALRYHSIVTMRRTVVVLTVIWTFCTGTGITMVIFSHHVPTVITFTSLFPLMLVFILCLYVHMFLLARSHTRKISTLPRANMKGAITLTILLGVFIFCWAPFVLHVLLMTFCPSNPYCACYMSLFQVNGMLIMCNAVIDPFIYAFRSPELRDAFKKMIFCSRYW

Binder | fold decrease in MC2R activation relative to full-length ACTH (cAMP production in transfected CHO cells) [1] | fold decrease in potency in cAMP production against ACTH(1-24) [2]
SYSMEHFRWAAAAAKKRRPVKVYP [ACTH analog SYSMEHFRWAAAAAKKRRPVKVYP] | 400 fold | –
SYSMEHFRWGKPVGAAAAAVKVYP [ACTH analog SYSMEHFRWGKPVGAAAAAVKVYP] | – | 1000 fold

Results, then the binder that gave them:

fold decrease in MC2R activation relative to full-length ACTH (cAMP production in transfected CHO cells) [1] | fold decrease in potency in cAMP production against ACTH(1-24) [2] | Binder
100 fold | – | SYSMEHFRWGKPVGAARRPVKVYP [ACTH analog SYSMEHFRWGKPVGAARRPVKVYP]
100 fold | – | SYSMEHFRWGKPVGKKAAAVKVYP [ACTH analog SYSMEHFRWGKPVGKKAAAVKVYP]
